# B1: ETS translocation variant 1 (Homo sapiens), P50549-1 (parent)
# chain: MDGFYDQQVPYMVTNSQRGRNCNEKPTNVRKRKFINRDLAHDSEELFQDLSQLQETWLAEAQVPDNDEQFVPDYQAESLAFHGLPLKIKKEPHSPCSEISSACSQEQPFKFSYGEKCLYNVSAYDQKPQVGMRPSNPPTPSSTPVSPLHHASPNSTHTPKPDRAFPAHLPPSQSIPDSSYPMDHRFRRQLSEPCNSFPPLPTMPREGRPMYQRQMSEPNIPFPPQGFKQEYHDPVYEHNTMVGSAASQSFPPPLMIKQEPRDFAYDSEVPSCHSIYMRQEGFLAHPSRTEGCMFEKGPRQFYDDTCVVPEKFDGDIKQEPGMYREGPTYQRRGSLQLWQFLVALLDDPSNSHFIAWTGRGMEFKLIEPEEVARRWGIQKNRPAMNYDKLSRSLRYYYEKGIMQKVAGERYVYKFVCDPEALFSMAFPDNQRPLLKTDMERHINEEDTVPLSHFDESMAYMPEGGCCNPHPYNEGYVY
# Variants of: B1
# Details: with COP1, Q8NHY2-1
# Chain of COP1, Q8NHY2-1 (Q8NHY2 whole entry): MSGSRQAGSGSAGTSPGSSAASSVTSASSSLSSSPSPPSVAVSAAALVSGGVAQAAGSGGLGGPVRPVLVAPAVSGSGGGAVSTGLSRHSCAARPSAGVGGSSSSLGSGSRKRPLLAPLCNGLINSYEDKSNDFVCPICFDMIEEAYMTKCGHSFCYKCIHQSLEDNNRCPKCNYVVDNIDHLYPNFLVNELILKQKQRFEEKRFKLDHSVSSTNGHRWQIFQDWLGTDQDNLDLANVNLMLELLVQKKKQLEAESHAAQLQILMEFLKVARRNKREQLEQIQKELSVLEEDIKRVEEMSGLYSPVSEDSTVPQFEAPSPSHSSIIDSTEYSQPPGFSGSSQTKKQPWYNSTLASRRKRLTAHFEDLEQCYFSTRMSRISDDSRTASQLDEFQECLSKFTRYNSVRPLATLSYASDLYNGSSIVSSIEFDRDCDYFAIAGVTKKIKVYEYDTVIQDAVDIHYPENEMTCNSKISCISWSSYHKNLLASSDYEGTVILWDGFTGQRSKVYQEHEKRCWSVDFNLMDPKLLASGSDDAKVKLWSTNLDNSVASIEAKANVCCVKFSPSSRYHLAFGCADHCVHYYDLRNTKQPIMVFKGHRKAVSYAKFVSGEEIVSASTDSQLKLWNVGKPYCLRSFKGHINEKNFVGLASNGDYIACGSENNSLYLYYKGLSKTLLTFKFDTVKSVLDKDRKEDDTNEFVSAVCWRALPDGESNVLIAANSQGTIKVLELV
row,effect of a mutation on the interaction,Variant
1,decreasing interaction,V71A;P72A
2,decreasing interaction,V63A;P64A;V71A;P72A

# From IntAct's records for PubMed 21572435
